Reference: a protein production outcome set (Wang et al. 2014)

test: label from the status in PepcDB records

Sequence | protein production
YENFIIAGHKEPDGDCIGSCLAMSFFLKRKNKNCILMSAGPFKRTEIKEYEHLFTDKLKISDKINPKTTGLIILDCSNFDRVGEIAELISGFNYIIIDHHATNTEKSDTSLIMPEAPSTTYLIQSIIEEIGEKLTKEEADALFFGLCTDTGFFRHLDAGSAEVFAHASRLIEAG | failed
YGNVWPWKSYEHVVAIAGGIGIPPIKALIEDMQGHTSLDKLTVLYGARSPSDIVYRSEIETWKEEMDFRITVDKGDENWRGHVGVVTTLVPEIKEYNHGAAFVIGPPVMMKFSVKSLLDAGFAEDNIYLSLERRMECG | failed
YLGPQGTFTHQAAVNAAQELARFEPQGFDLMPMDDVPQILDAAQHGDGWGIVAWENNVEGYVVPNLDALIDAKDLVGFARVGVNVEFDAYVAQGADPAEARIATAHPHGLAQCKRFIAEHRLSTQPATSNAAACRDLIPGEIAFGPAICGELYDITRIGTAIQDYQGAATDFLVLSPRAE | failed
YLKLVRIYTKPKGQLPDYTSPVVLPYSRTTVEDFCMKIHKNLIKEFKYALVWGLSVKHNPQKVGKDHTLEDEDVIQIVKK | not failed
YLSPMAHWLMPVAGGPNIEKMLNLLPALFSLYPEENNPQLLISKVYLPRQSQRYDPFYDLKNLAERWSEQLQRPIIPIPVCSTSIADALSDLAEMRECAAIVLGASREGLLKNVIHGNLPTQIASQTNTTVFIFRGPVDSPNEEAIVPPLAPDFGLDE | failed
YNPWRNPEGALKRRNTVLNNMLVMGYLSQSQYDEEVARPLGVVSKPTLGPAKFPDFLDIVRRQLRAEYQESDLTNQGL | failed
YRALFEHAIDGIFIMDAEGHYLDVNPAICSAIGYTRDEFLALDWGVLSRGVDSGWAAASLARIVGGEPLREERTVWTRNGDQLTVELSAHLLPDGKILGIARDVS | not failed
YTCSFVGHFSAGKSTLINLLIEQDILPSSPVPTTSNTAIVSVSDNHDIIANLPNQTYAKLSNYDEVREMNRQNVDVESVEINFQSAKFENGFTLQDTPGVDSNVASHQSITEQYMYTSNMIFYTVDYNHVQSELNFKFMKHINDVGIPVVFIINQIDKHQDDELS | failed
YTDESGLSELVNAAGEKLQDLELMGQKNAVRDFFKELIADSGKVAYGESQVRANLEINSVDVLLLSEDLRAERVTTKCSVCGYENKWTRRWKPGEPAPAAGNCPKCGSSLEVTDVTDIVDEFSELADKSNAKVVFVSTDFDEGSQLMNAFGGIAAILRYNTGV | not failed
YTEQPIDLVPTQPLPNASFDNFKLTCSNTKFADDLNQMTGFTKPASRELSVTFFPDLNGDVVAIDYRHYSASFKKGAKLLHKPIVWHINQATTKTTFKPNTWCLRCLWSTKPVDT | not failed
YTPMSDLGQQGLFDITRTLLQQPDLASLSEALSQLVKRSALADSAGIVLWQAQSQRAQYYATRENGRPVEYEDETVLAHGPVRRILSRPDALHCNFHEFTETWPQLAASGLYPEFGHCCLLPLAAEGRIFGGCEFIRQEDR | failed
YVTSQIHAKGSDLAKLMQIAALKGNEEVLDVATGGGHVANAFAPFVKKVVAFDLTEDILKVARAFIEGNGHQQVEYVQGDAEQLPFTDERFHIVTCRIAAHHFPNPASFVSEAYRVLKKGGQLLLVDNSAPENDAFDVFYNYVEKERDYSHHRAWKKSDWLKMLEEAGFELEELHCFHKTFIFEDWCDRMNVTTEKKQELSDFIKSKPTEYYQKFKIVVEDGRVYSFRGESILMKARKPTVKNKGSS | not failed
